These results are taken from the supplement of paper PMC9112550, “Optimization of the antimicrobial peptide Bac7 by deep mutational scanning” (BMC Biology, 2022).

For the data set, the system named is Escherichia coli TOP10. Nature of the data set: shrunken log2 fold change of peptide-encoding DNA abundance (4.5 h post-induction vs induction); higher = less antimicrobial activity (less host growth inhibition). The settings on record: time post-induction: 4.5 h; library: site-saturation at positions 5, 18, 19, 20.
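Further: peptides expressed intracellularly from a pBAD plasmid library in pooled LB shake-flask culture, induced with 0.3% L-arabinose, DNA abundance read by NGS, three biological replicates, DESeq2 with apeglm shrinkage.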

On to RRIRFRPPRLPRPRPRPMWHPRP, for which the “shrunken log2 fold change” value was 0.0814.

RRIRPRPPRLPRPRPRPKFHPRP: the “shrunken log2 fold change” value was -0.143.

In the case of RRIRKRPPRLPRPRPRPNKVPRP, the “shrunken log2 fold change” value was -0.00759.

As for RRIRGRPPRLPRPRPRPIQEPRP, the “shrunken log2 fold change” value came out at 0.416.

As to RRIRCRPPRLPRPRPRPAWRPRP, the “shrunken log2 fold change” value turned out to be 0.575.

Turning to RRIRRRPPRLPRPRPRPIPTPRP, the “shrunken log2 fold change” value was 0.063.

For the sequence RRIRPRPPRLPRPRPRPTNQPRP, the “shrunken log2 fold change” value was -0.182.

As to RRIRHRPPRLPRPRPRPPSWPRP, the “shrunken log2 fold change” value was determined as 0.393.

Regarding RRIRCRPPRLPRPRPRPHTYPRP, the “shrunken log2 fold change” value was -0.578.

For the sequence RRIRSRPPRLPRPRPRPTVLPRP, the “shrunken log2 fold change” value was determined as 0.0356.

On to RRIRYRPPRLPRPRPRPMHYPRP, for which the “shrunken log2 fold change” value is -1.03.

As to RRIRWRPPRLPRPRPRPMPHPRP, the “shrunken log2 fold change” value is 0.323.

In the case of RRIRSRPPRLPRPRPRPVLYPRP, the “shrunken log2 fold change” value turned out to be 1.03.

With RRIRYRPPRLPRPRPRPFCLPRP, the “shrunken log2 fold change” value is -1.22.

Consider RRIRHRPPRLPRPRPRPTMSPRP, for which the “shrunken log2 fold change” value is -0.11.

In the case of RRIRPRPPRLPRPRPRPRESPRP, the “shrunken log2 fold change” value is 0.0752.

As to RRIRERPPRLPRPRPRPQLVPRP, the “shrunken log2 fold change” value is 0.0441.

For RRIRMRPPRLPRPRPRPFLMPRP, the “shrunken log2 fold change” value was -0.0208.

For the sequence RRIRCRPPRLPRPRPRPMMSPRP, the “shrunken log2 fold change” value is -0.0652.

Regarding RRIRFRPPRLPRPRPRPDWDPRP, the “shrunken log2 fold change” value was found to be 0.124.

For the sequence RRIRVRPPRLPRPRPRPRFQPRP, the “shrunken log2 fold change” value stood at 0.129.

As to RRIRHRPPRLPRPRPRPGETPRP, the “shrunken log2 fold change” value was -0.00149.

As to RRIRNRPPRLPRPRPRPVMCPRP, the “shrunken log2 fold change” value was -0.0207.

With RRIRPRPPRLPRPRPRPVDIPRP, the “shrunken log2 fold change” value was -0.288.

In the case of RRIRCRPPRLPRPRPRPYVIPRP, the “shrunken log2 fold change” value is -0.381.

As to RRIRSRPPRLPRPRPRPHQRPRP, the “shrunken log2 fold change” value was -0.249.

In the case of RRIRHRPPRLPRPRPRPPNYPRP, the “shrunken log2 fold change” value was -0.0558.

In the case of RRIRKRPPRLPRPRPRPSHWPRP, the “shrunken log2 fold change” value is 0.275.

With RRIRGRPPRLPRPRPRPYHFPRP, the “shrunken log2 fold change” value was -0.041.

As for RRIRFRPPRLPRPRPRPRIRPRP, the “shrunken log2 fold change” value was -0.075.

For the sequence RRIRKRPPRLPRPRPRPSAPPRP, the “shrunken log2 fold change” value came out at 0.504.

For RRIRSRPPRLPRPRPRPWPKPRP, the “shrunken log2 fold change” value was 0.228.

Regarding RRIRVRPPRLPRPRPRPWVEPRP, the “shrunken log2 fold change” value is -0.0944.

In the case of RRIRTRPPRLPRPRPRPNQIPRP, the “shrunken log2 fold change” value was -0.469.

Regarding RRIRMRPPRLPRPRPRPCFAPRP, the “shrunken log2 fold change” value worked out at 0.431.

As for RRIRKRPPRLPRPRPRPNLNPRP, the “shrunken log2 fold change” value was -0.356.

With RRIRDRPPRLPRPRPRPTAKPRP, the “shrunken log2 fold change” value is -0.00144.

With RRIRARPPRLPRPRPRPLILPRP, the “shrunken log2 fold change” value is -0.252.

For RRIRGRPPRLPRPRPRPETWPRP, the “shrunken log2 fold change” value is 1.28.

Turning to RRIRARPPRLPRPRPRPEGNPRP, the “shrunken log2 fold change” value was determined as 0.295.

As to RRIRGRPPRLPRPRPRPNNIPRP, the “shrunken log2 fold change” value is -0.163.

Regarding RRIRYRPPRLPRPRPRPDKRPRP, the “shrunken log2 fold change” value is -0.168.

Take RRIRHRPPRLPRPRPRPHWVPRP: the “shrunken log2 fold change” value is -0.00951.

For the sequence RRIRGRPPRLPRPRPRPMTSPRP, the “shrunken log2 fold change” value is 0.445.

RRIRMRPPRLPRPRPRPWRWPRP: the “shrunken log2 fold change” value stood at 0.205.

As for RRIRCRPPRLPRPRPRPTFMPRP, the “shrunken log2 fold change” value is -0.513.

Turning to RRIRFRPPRLPRPRPRPSCQPRP, the “shrunken log2 fold change” value is -0.245.

As for RRIRDRPPRLPRPRPRPLALPRP, the “shrunken log2 fold change” value worked out at 0.0811.

RRIRARPPRLPRPRPRPRKQPRP: the “shrunken log2 fold change” value turned out to be 0.301.

With RRIRKRPPRLPRPRPRPQAMPRP, the “shrunken log2 fold change” value is 0.146.

For RRIRHRPPRLPRPRPRPWHNPRP, the “shrunken log2 fold change” value was -0.261.

On to RRIRMRPPRLPRPRPRPNIFPRP, for which the “shrunken log2 fold change” value is -0.0848.

As to RRIRKRPPRLPRPRPRPADKPRP, the “shrunken log2 fold change” value came to 0.122.

For RRIRWRPPRLPRPRPRPGITPRP, the “shrunken log2 fold change” value was determined as 0.0178.

Turning to RRIRDRPPRLPRPRPRPYGKPRP, the “shrunken log2 fold change” value was -0.511.

Turning to RRIRERPPRLPRPRPRPAAYPRP, the “shrunken log2 fold change” value is -0.0475.

Consider RRIRPRPPRLPRPRPRPLLMPRP, for which the “shrunken log2 fold change” value is -0.185.

For RRIRRRPPRLPRPRPRPNLWPRP, the “shrunken log2 fold change” value is 0.552.

Consider RRIRKRPPRLPRPRPRPDQGPRP, for which the “shrunken log2 fold change” value is -0.0154.

In the case of RRIRHRPPRLPRPRPRPRYKPRP, the “shrunken log2 fold change” value was -0.424.

For RRIRLRPPRLPRPRPRPQISPRP, the “shrunken log2 fold change” value is -0.272.

For RRIRWRPPRLPRPRPRPHQTPRP, the “shrunken log2 fold change” value stood at 0.0649.

In the case of RRIRARPPRLPRPRPRPTHAPRP, the “shrunken log2 fold change” value was found to be 0.528.

For RRIRLRPPRLPRPRPRPVMMPRP, the “shrunken log2 fold change” value is -0.288.

Regarding RRIRQRPPRLPRPRPRPVEGPRP, the “shrunken log2 fold change” value was 0.294.

Take RRIRYRPPRLPRPRPRPPGGPRP: the “shrunken log2 fold change” value is 0.259.

Turning to RRIRFRPPRLPRPRPRPLTCPRP, the “shrunken log2 fold change” value is -0.182.

In the case of RRIRWRPPRLPRPRPRPCSTPRP, the “shrunken log2 fold change” value stood at 0.137.

Turning to RRIRHRPPRLPRPRPRPTCQPRP, the “shrunken log2 fold change” value is -0.044.

Regarding RRIRWRPPRLPRPRPRPDAEPRP, the “shrunken log2 fold change” value came to 1.89.

With RRIRQRPPRLPRPRPRPGPMPRP, the “shrunken log2 fold change” value is 0.261.

On to RRIRWRPPRLPRPRPRPRKMPRP, for which the “shrunken log2 fold change” value turned out to be 0.382.

As to RRIRRRPPRLPRPRPRPDRVPRP, the “shrunken log2 fold change” value is -0.203.

In the case of RRIRYRPPRLPRPRPRPRDCPRP, the “shrunken log2 fold change” value is -0.137.

With RRIRPRPPRLPRPRPRPLQHPRP, the “shrunken log2 fold change” value was -0.17.

Take RRIRNRPPRLPRPRPRPRIHPRP: the “shrunken log2 fold change” value is -0.184.

RRIRVRPPRLPRPRPRPSTGPRP: the “shrunken log2 fold change” value is -0.00698.

Consider RRIRWRPPRLPRPRPRPYGLPRP, for which the “shrunken log2 fold change” value is -0.23.

With RRIRCRPPRLPRPRPRPFKIPRP, the “shrunken log2 fold change” value is -0.6.

With RRIRNRPPRLPRPRPRPEHWPRP, the “shrunken log2 fold change” value was -0.0343.

Consider RRIRLRPPRLPRPRPRPYASPRP, for which the “shrunken log2 fold change” value amounted to 0.000498.

RRIRWRPPRLPRPRPRPERKPRP: the “shrunken log2 fold change” value was -0.0287.

As for RRIRVRPPRLPRPRPRPNAEPRP, the “shrunken log2 fold change” value amounted to 0.0611.

Regarding RRIRLRPPRLPRPRPRPDHRPRP, the “shrunken log2 fold change” value was -0.041.

With RRIRPRPPRLPRPRPRPCPMPRP, the “shrunken log2 fold change” value was -0.156.

Consider RRIRPRPPRLPRPRPRPANFPRP, for which the “shrunken log2 fold change” value was -0.0737.

RRIRNRPPRLPRPRPRPFCNPRP: the “shrunken log2 fold change” value was -0.126.

Turning to RRIRERPPRLPRPRPRPQYDPRP, the “shrunken log2 fold change” value is -0.418.

For the sequence RRIRTRPPRLPRPRPRPYHNPRP, the “shrunken log2 fold change” value is -0.941.

With RRIRGRPPRLPRPRPRPFMSPRP, the “shrunken log2 fold change” value is -0.192.

Consider RRIRFRPPRLPRPRPRPRNYPRP, for which the “shrunken log2 fold change” value is -0.236.

Turning to RRIRRRPPRLPRPRPRPQYHPRP, the “shrunken log2 fold change” value was -0.145.

As to RRIRERPPRLPRPRPRPAHSPRP, the “shrunken log2 fold change” value is -0.159.

Turning to RRIRCRPPRLPRPRPRPIMWPRP, the “shrunken log2 fold change” value was -0.123.

On to RRIRWRPPRLPRPRPRPGVAPRP, for which the “shrunken log2 fold change” value came to 0.821.

In the case of RRIRARPPRLPRPRPRPGFFPRP, the “shrunken log2 fold change” value worked out at 0.509.

Take RRIRARPPRLPRPRPRPLCLPRP: the “shrunken log2 fold change” value worked out at 0.132.

With RRIRWRPPRLPRPRPRPWWSPRP, the “shrunken log2 fold change” value was determined as 0.173.

In the case of RRIRKRPPRLPRPRPRPATQPRP, the “shrunken log2 fold change” value came out at 0.958.

For the sequence RRIRLRPPRLPRPRPRPSNPPRP, the “shrunken log2 fold change” value is -0.86.

RRIRSRPPRLPRPRPRPILQPRP: the “shrunken log2 fold change” value was 0.0824.

With RRIRPRPPRLPRPRPRPHTFPRP, the “shrunken log2 fold change” value was -0.667.

In the case of RRIRKRPPRLPRPRPRPYYAPRP, the “shrunken log2 fold change” value was -0.0013.

Take RRIRNRPPRLPRPRPRPKHTPRP: the “shrunken log2 fold change” value is -0.0718.

Consider RRIRVRPPRLPRPRPRPLPCPRP, for which the “shrunken log2 fold change” value was -0.12.

As for RRIRLRPPRLPRPRPRPQWNPRP, the “shrunken log2 fold change” value is -0.289.

As for RRIRIRPPRLPRPRPRPSVIPRP, the “shrunken log2 fold change” value is -0.661.

As to RRIRWRPPRLPRPRPRPAIDPRP, the “shrunken log2 fold change” value is 0.294.

For RRIRNRPPRLPRPRPRPAFTPRP, the “shrunken log2 fold change” value was -0.176.

With RRIRERPPRLPRPRPRPDYKPRP, the “shrunken log2 fold change” value was -0.31.

Consider RRIRLRPPRLPRPRPRPRAMPRP, for which the “shrunken log2 fold change” value is 0.373.

With RRIRKRPPRLPRPRPRPWSCPRP, the “shrunken log2 fold change” value is -0.22.

On to RRIRIRPPRLPRPRPRPMPAPRP, for which the “shrunken log2 fold change” value was determined as 0.0451.

In the case of RRIRPRPPRLPRPRPRPIFLPRP, the “shrunken log2 fold change” value turned out to be 0.124.

Consider RRIRTRPPRLPRPRPRPIGDPRP, for which the “shrunken log2 fold change” value was -0.293.

For the sequence RRIRTRPPRLPRPRPRPEVLPRP, the “shrunken log2 fold change” value is -0.0153.

For the sequence RRIRARPPRLPRPRPRPDGKPRP, the “shrunken log2 fold change” value is 0.154.

Turning to RRIRFRPPRLPRPRPRPAMVPRP, the “shrunken log2 fold change” value is -0.149.

RRIRFRPPRLPRPRPRPLYSPRP: the “shrunken log2 fold change” value is -0.211.

Take RRIRWRPPRLPRPRPRPVSKPRP: the “shrunken log2 fold change” value turned out to be 0.0519.

On to RRIRSRPPRLPRPRPRPQELPRP, for which the “shrunken log2 fold change” value is -0.107.

For RRIRDRPPRLPRPRPRPKQVPRP, the “shrunken log2 fold change” value is -0.185.

In the case of RRIRLRPPRLPRPRPRPIPPPRP, the “shrunken log2 fold change” value was 0.0351.

On to RRIRWRPPRLPRPRPRPTMWPRP, for which the “shrunken log2 fold change” value stood at 0.615.

With RRIRERPPRLPRPRPRPQATPRP, the “shrunken log2 fold change” value is -0.0202.
